The target of test [1] is T1, AP-Nogo-66 (UniProt Q9NQC3 1055-1120).
T1 construct: domain: Nogo-66; construct described elsewhere (Fournier 2001); also called AP-Ng66; Ng66; not shown: alkaline phosphatase (AP); construct described elsewhere
T1 sequence (looked up): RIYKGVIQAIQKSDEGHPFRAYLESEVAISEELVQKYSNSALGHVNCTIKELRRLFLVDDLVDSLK
Kind of test: AP-ligand binding, COS-7.

The target of test [2] is T2, AP fusion protein with the B4C fragment of Amino-Nogo-A fused directly to Nogo-66 (human, UniProt Q9NQC3 1055-1120).
T2 construct: domain: Nogo-66; also called AP-B4C66; AP-B4C-66; not shown: alkaline phosphatase (AP), vector pcAP6
T2 sequence: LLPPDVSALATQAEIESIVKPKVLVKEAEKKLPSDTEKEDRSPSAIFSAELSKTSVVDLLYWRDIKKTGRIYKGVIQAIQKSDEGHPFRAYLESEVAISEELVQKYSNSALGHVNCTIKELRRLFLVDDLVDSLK
The test can be described thus: AP-ligand binding, COS-7.

Test [3] deals with T3, AP-fused Amino-Nogo fragment B4C (a.a. 950-1018) (human, UniProt Q9NQC3 950-1018).
T3 construct: also called AmNg B4C; AP-B4C; not shown: alkaline phosphatase (AP), vector pcAP6
T3 sequence: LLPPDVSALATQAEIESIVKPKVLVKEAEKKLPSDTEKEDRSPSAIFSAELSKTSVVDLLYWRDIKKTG
Kind of test: AP-ligand binding, COS-7.

The subject of test [4] is NgR ligands. The test can be described thus: Binding of alanine substituted NgR mutants to NgR ligands, summary categories. As to conditions: AP-Nogo66, AP-B4C, AP-B4C66, AP-Lingo-1, AP-OMgp and AP-MAG; compared to wild type NgR. Summed up: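 Human NgR1 template; 74 mutants with 1-8 solvent-exposed charged surface residues (within 5 Å) Ala-substituted, plus glycosylation-site mutants and D259N polymorphism. Mutants tested for binding of AP-tagged Nogo66, Amino-Nogo-B4C, B4C66, MAG, OMgp and Lingo-1; each classed as losing all, keeping all, or selective ligand binding.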

B1: human NgR1 alanine mutant 95, 97, 188, 189, 191, 192 (receptor)
chain: CPGACVCYNEPKVTTSCPQQGLQAVPVGIPAASQRIFLHGNRISHVPAASFRACRNLTILWLHSNVLAAIAAAAFTGLALLEQLDLSDNAQLRSVDPATFHGLGRLHTLHLDRCGLQELGPGLFRGLAALQYLYLQDNALQALPDDTFRDLGNLTHLFLHGAAIAAVPERAFRGLHSLDRLLLHQNRVAHVHPHAFRDLGRLMTLYLFANNLSALPTEALAPLRALQYLRLNDNPWVCDCRARPLWAWLQKFRGSSSEVPCSLPQRLAGRDLKRLAANDLQGCAVATGPYHPIWTGRATDEEPLGLPKCCQPDAADKASVLEPGRPASAGNALKGRVPPGDSPPGNGSGPRHINDSPFGTLPGSAEPPLTAVRPEGSEPPGFPTSGPRRRPGCSRKNRTRSHCRLGQAGSGGGGTGDSEGSGALPSLTCSLTPLGLALVLWTVLGPC
As for B1, the binding result in test [1], in test [2] and in test [3] was “no binding” throughout. In test [4], the “ligand binding category of NgR mutant (Table II)” value (shortened to “ligand binding category”) is on record as “No binding”.

B2: human NgR1 alanine mutant 114, 117, 163 (receptor)
chain: CPGACVCYNEPKVTTSCPQQGLQAVPVGIPAASQRIFLHGNRISHVPAASFRACRNLTILWLHSNVLARIDAAAFTGLALLEQLDLSANAALRSVDPATFHGLGRLHTLHLDRCGLQELGPGLFRGLAALQYLYLQANALQALPDDTFRDLGNLTHLFLHGNRISSVPERAFRGLHSLDRLLLHQNRVAHVHPHAFRDLGRLMTLYLFANNLSALPTEALAPLRALQYLRLNDNPWVCDCRARPLWAWLQKFRGSSSEVPCSLPQRLAGRDLKRLAANDLQGCAVATGPYHPIWTGRATDEEPLGLPKCCQPDAADKASVLEPGRPASAGNALKGRVPPGDSPPGNGSGPRHINDSPFGTLPGSAEPPLTAVRPEGSEPPGFPTSGPRRRPGCSRKNRTRSHCRLGQAGSGGGGTGDSEGSGALPSLTCSLTPLGLALVLWTVLGPC
Regarding B2, the binding result in test [1], in test [2] and in test [3] was “no binding” each time. The “ligand binding category” value in test [4] is reported as “No binding”.

B3: human NgR1 alanine mutant 95, 97, 117, 119, 120, 188, 189 (receptor)
chain: CPGACVCYNEPKVTTSCPQQGLQAVPVGIPAASQRIFLHGNRISHVPAASFRACRNLTILWLHSNVLAAIAAAAFTGLALLEQLDLSDNAALAAVDPATFHGLGRLHTLHLDRCGLQELGPGLFRGLAALQYLYLQDNALQALPDDTFRDLGNLTHLFLHGAAISSVPERAFRGLHSLDRLLLHQNRVAHVHPHAFRDLGRLMTLYLFANNLSALPTEALAPLRALQYLRLNDNPWVCDCRARPLWAWLQKFRGSSSEVPCSLPQRLAGRDLKRLAANDLQGCAVATGPYHPIWTGRATDEEPLGLPKCCQPDAADKASVLEPGRPASAGNALKGRVPPGDSPPGNGSGPRHINDSPFGTLPGSAEPPLTAVRPEGSEPPGFPTSGPRRRPGCSRKNRTRSHCRLGQAGSGGGGTGDSEGSGALPSLTCSLTPLGLALVLWTVLGPC
Consider B3, for which the binding result in test [1], in test [2] and in test [3] was “no binding” in each case. Besides, in test [4], the “ligand binding category” value is given as “No binding”.

B4: human NgR1 alanine mutant 210, 232, 234 (receptor)
chain: CPGACVCYNEPKVTTSCPQQGLQAVPVGIPAASQRIFLHGNRISHVPAASFRACRNLTILWLHSNVLARIDAAAFTGLALLEQLDLSDNAQLRSVDPATFHGLGRLHTLHLDRCGLQELGPGLFRGLAALQYLYLQDNALQALPDDTFRDLGNLTHLFLHGNRISSVPERAFRGLHSLDRLLLAQNRVAHVHPHAFRDLGRLMTLALAANNLSALPTEALAPLRALQYLRLNDNPWVCDCRARPLWAWLQKFRGSSSEVPCSLPQRLAGRDLKRLAANDLQGCAVATGPYHPIWTGRATDEEPLGLPKCCQPDAADKASVLEPGRPASAGNALKGRVPPGDSPPGNGSGPRHINDSPFGTLPGSAEPPLTAVRPEGSEPPGFPTSGPRRRPGCSRKNRTRSHCRLGQAGSGGGGTGDSEGSGALPSLTCSLTPLGLALVLWTVLGPC
For the molecule B4, the binding result in test [1], in test [2] and in test [3] was “no binding” in each case. The “ligand binding category” value in test [4] was “No binding”.

B5: human NgR1 alanine mutant 182, 186, 210 (receptor)
chain: CPGACVCYNEPKVTTSCPQQGLQAVPVGIPAASQRIFLHGNRISHVPAASFRACRNLTILWLHSNVLARIDAAAFTGLALLEQLDLSDNAQLRSVDPATFHGLGRLHTLHLDRCGLQELGPGLFRGLAALQYLYLQDNALQALPDDTFRDLGNLTALFLAGNRISSVPERAFRGLHSLDRLLLAQNRVAHVHPHAFRDLGRLMTLYLFANNLSALPTEALAPLRALQYLRLNDNPWVCDCRARPLWAWLQKFRGSSSEVPCSLPQRLAGRDLKRLAANDLQGCAVATGPYHPIWTGRATDEEPLGLPKCCQPDAADKASVLEPGRPASAGNALKGRVPPGDSPPGNGSGPRHINDSPFGTLPGSAEPPLTAVRPEGSEPPGFPTSGPRRRPGCSRKNRTRSHCRLGQAGSGGGGTGDSEGSGALPSLTCSLTPLGLALVLWTVLGPC
B5: the binding result in test [1], in test [2] and in test [3] was “no binding” each time. In addition, the “ligand binding category” value in test [4] was “No binding”.

B6: human NgR1 alanine mutant 111, 113, 114 (receptor)
chain: CPGACVCYNEPKVTTSCPQQGLQAVPVGIPAASQRIFLHGNRISHVPAASFRACRNLTILWLHSNVLARIDAAAFTGLALLEQLALAANAQLRSVDPATFHGLGRLHTLHLDRCGLQELGPGLFRGLAALQYLYLQDNALQALPDDTFRDLGNLTHLFLHGNRISSVPERAFRGLHSLDRLLLHQNRVAHVHPHAFRDLGRLMTLYLFANNLSALPTEALAPLRALQYLRLNDNPWVCDCRARPLWAWLQKFRGSSSEVPCSLPQRLAGRDLKRLAANDLQGCAVATGPYHPIWTGRATDEEPLGLPKCCQPDAADKASVLEPGRPASAGNALKGRVPPGDSPPGNGSGPRHINDSPFGTLPGSAEPPLTAVRPEGSEPPGFPTSGPRRRPGCSRKNRTRSHCRLGQAGSGGGGTGDSEGSGALPSLTCSLTPLGLALVLWTVLGPC
On to B6, for which the binding result in test [1], in test [2] and in test [3] was “no binding” throughout. In test [4], the “ligand binding category” value is reported as “No binding”.

B7: human NgR1 alanine mutant 67, 68, 71 (receptor)
chain: CPGACVCYNEPKVTTSCPQQGLQAVPVGIPAASQRIFLHGAAISAVPAASFRACRNLTILWLHSNVLARIDAAAFTGLALLEQLDLSDNAQLRSVDPATFHGLGRLHTLHLDRCGLQELGPGLFRGLAALQYLYLQDNALQALPDDTFRDLGNLTHLFLHGNRISSVPERAFRGLHSLDRLLLHQNRVAHVHPHAFRDLGRLMTLYLFANNLSALPTEALAPLRALQYLRLNDNPWVCDCRARPLWAWLQKFRGSSSEVPCSLPQRLAGRDLKRLAANDLQGCAVATGPYHPIWTGRATDEEPLGLPKCCQPDAADKASVLEPGRPASAGNALKGRVPPGDSPPGNGSGPRHINDSPFGTLPGSAEPPLTAVRPEGSEPPGFPTSGPRRRPGCSRKNRTRSHCRLGQAGSGGGGTGDSEGSGALPSLTCSLTPLGLALVLWTVLGPC
Regarding B7, the binding result in test [1], in test [2] and in test [3] was “no binding” in each case. Also, the “ligand binding category” value in test [4] was “No binding”.

These data come from patent publication US20090111753A1, “Nogo-A Polypeptide Fragments, Variant Nogo Receptor-1 Polypeptides, and Uses Thereof” (Yale University, priority 2004, published 2009).
